Source: US20260373285 (published 2026)

B1: Trop-2-YC-82hz-4 (antibody, V domains shown)
VH: EVQVVESGGGLVQPGGSLRLSCAASGYIFSNSGMGWYRQAPGQGLELVAAISSGGTTHYADSVKGRFTISRDNSKNTLYLQMNSLRAEDTAVYYCNGDRYYSGTDVFGSWGQGTLVTVSS
B2: Trop-2-YC-82hz-1 (antibody, V domains shown)
VH: EVQVVESGGGLVQPGGSLRLSCATSGYIFSNSGMGWYRQAPGKGLELVAAISSGGTTHYADSVKGRFTISRDNSKNTVYLQMNSLRAEDTAVYYCNGDRYYSGTDVFGSWGQGTLVTVSS
B3: Trop-2-YC-82hz-2 (antibody, V domains shown)
VH: EVQVVESGGGLVQPGGSLRLSCATSGYIFSNSGMGWYRQAPGKQRELVAAISSGGTTHYADSVKGRFTISRDNSKNTVYLQMNSLRAEDTAVYYCNGDRYYSGTDVFGSWGQGTLVTVSS
B4: Trop-2-YC-82hz-3 (antibody, V domains shown)
VH: EVQVVESGGGLVQPGGSLRLSCAASGYIFSNSGMGWYRQAPGKGLELVAAISSGGTTHYAQSVKGRFTISRDNSKNTVYLQMNSLRPEDTAVYYCNGDRYYSGTDVFGSWGQGTLVTVSS
B5: Trop-2-YC-82hz-5 (antibody, V domains shown)
VH: EVQVVESGGGLVQPGGSLRLSCAASGYIFSNSGMGWYRQAPGQGLELVAAISSGGTTHYAQSVKGRFTISRDNSKNTLYLQMNSLRAEDTAVYYCNGDRYYSGTDVFGSWGQGTLVTVSS
B6: PD-L1-1.168.15-z1-uIgG1K (antibody, V domains shown)
VH: EVQLVQSGAEVKKPGATVKISCKVSGFNIEDTYIYWVQQAPGKGLEWMGWIDPANYNTKYDPRFQDRVTITADTSTDTAYMELSSLRSEDTAVYYCARGLRLLMDYWGQGTTVTVSS
VL: DIQLTQSPSFLSASVGDRVTITCKASQNVHTSLAWYQQKPGKSPKLLIYLASNRHTGVPSRFSGSGSGTEFTLTISSLQPEDFATYYCLQHWNYPLTFGQGTKLEIKR
B7: PD-L1-1.168.15-z202-uIgG1K (antibody, V domains shown)
VH: EVQLQQSGAELVKPGASVKLSCTVSGFNIEDTYIYWVKQRPEQGLEWIGWIDPANYNTKYDPRFQDKATVTVDTSSNTAYMHLSSLTSEDTAVYYCARGLRLLMDYWGQGTSVTVSS
VL: DIQMTQSPSFLSASVGDRVTITCKASQNVHTSLAWYQQKPGKSPKALIYLASNRHTGVPSRFSGSGSGTEFTLTISSLQPEDFATYFCLQHWNYPLTFGQGTKLEIKR
B8: PD-L1-1.168.15-z14-uIgG1K (antibody)
chain 1: not shown
chain 2: DIQMTQSPSFLSASVGDRVTITCKASQNVHTSLAWYQQKPGKSPKALIYLASNRHTGVPSRFSGSGSGTEFTLTISSLQPEDFATYFCLQHWNYPLTFGQGTKLEIKRTVAAPSVFIFPPSDEQLKSGTASVVCLLNNFYPREAKVQWKVDNALQSGNSQESVTEQDSKDSTYSLSSTLTLSKADYEKHKVYACEVTHQGLSSPVTKSFNRGEC
B9: PD-L1-1.168.15-z13-uIgG1K (antibody)
chain 1: not shown
chain 2: DIQLTQSPSFLSASVGDRVTITCKASQNVHTSLAWYQQKPGKSPKALIYLASNRHTGVPSRFSGSGSGTEFTLTISSLQPEDFATYFCLQHWNYPLTFGQGTKLEIKRTVAAPSVFIFPPSDEQLKSGTASVVCLLNNFYPREAKVQWKVDNALQSGNSQESVTEQDSKDSTYSLSSTLTLSKADYEKHKVYACEVTHQGLSSPVTKSFNRGEC
B10: PD-L1-1.168.15-z6-uIgG1K (antibody, V domains shown)
VH: EVQLVQSGAEVKKPGATVKISCKVSGFNIEDTYIYWVQQAPGKGLEWMGWIDPANYNTKYDPRFQDRVTITVDTSTDTAYMELSSLRSEDTAVYYCARGLRLLMDYWGQGTTVTVSS
VL: DIQLTQSPSFLSASVGDRVTITCKASQNVHTSLAWYQQKPGKAPKALIYLASNRHTGVPSRFSGSGSGTEFTLTISSLQPEDFATYYCLQHWNYPLTFGQGTKLEIKR
B11: PD-L1-1.168.15-z8-uIgG1K (antibody)
chain 1: not shown
chain 2: DIQLTQSPSFLSASVGDRVTITCKASQNVHTSLAWYQQKPGKSPKALIYLASNRHTGVPSRFSGSGSGTEFTLTISSLQPEDFATYYCLQHWNYPLTFGQGTKLEIKRTVAAPSVFIFPPSDEQLKSGTASVVCLLNNFYPREAKVQWKVDNALQSGNSQESVTEQDSKDSTYSLSSTLTLSKADYEKHKVYACEVTHQGLSSPVTKSFNRGEC
B12: PD-L1-1.168.15-z201-uIgG1K (antibody, V domains shown)
VH: EVQLVQSGAEVKKPGATVKLSCKVSGFNIEDTYIYWVQQAPGKGLEWIGWIDPANYNTKYDPRFQDRVTVTVDTSTNTAYMELSSLRSEDTAVYYCARGLRLLMDYWGQGTTVTVSS
VL: DIVMTQSQKFMSSSVGDRVSITCKASQNVHTSLAWYQQRPGQSPKALIYLASNRHTGVPDRFTGSGSGTDFTLTISNVQSEDLADYFCLQHWNYPLTFGAGTKLELRR
B13: PD-L1-1.168.15-z17-uIgG1K (antibody, V domains shown)
VH: EVQLVQSGAEVKKPGATVKISCKVSGFNIEDTYIYWVQQAPGKGLEWMGWIDPANYNTKYDPRFQDRVTVTVDTSTNTAYMELSSLRSEDTAVYYCARGLRLLMDYWGQGTTVTVSS
VL: DIQMTQSPSFLSASVGDRVTITCKASQNVHTSLAWYQQKPGKSPKALIYLASNRHTGVPSRFSGSGSGTEFTLTISSLQPEDFATYFCLQHWNYPLTFGQGTKLEIKR
B14: PD-L1-1.168.15-z7-uIgG1K (antibody)
chain 1: not shown
chain 2: DIQLTQSPSFLSASVGDRVTITCKASQNVHTSLAWYQQKPGKSPKALIYLASNRHTGVPSRFSGSGSGTEFTLTISSLQPEDFATYYCLQHWNYPLTFGQGTKLEIKRTVAAPSVFIFPPSDEQLKSGTASVVCLLNNFYPREAKVQWKVDNALQSGNSQESVTEQDSKDSTYSLSSTLTLSKADYEKHKVYACEVTHQGLSSPVTKSFNRGEC
B15: PD-L1-1.168.15-z9-uIgG1K (antibody)
chain 1: not shown
chain 2: DIQLTQSPSFLSASVGDRVTITCKASQNVHTSLAWYQQKPGKSPKALIYLASNRHTGVPSRFSGSGSGTEFTLTISSLQPEDFATYFCLQHWNYPLTFGQGTKLEIKRTVAAPSVFIFPPSDEQLKSGTASVVCLLNNFYPREAKVQWKVDNALQSGNSQESVTEQDSKDSTYSLSSTLTLSKADYEKHKVYACEVTHQGLSSPVTKSFNRGEC
B16: PD-L1-1.168.15-z2-uIgG1K (antibody, V domains shown)
VH: EVQLVQSGAEVKKPGATVKISCKVSGFNIEDTYIYWVQQAPGKGLEWMGWIDPANYNTKYDPRFQDRVTITADTSTDTAYMELSSLRSEDTAVYYCARGLRLLMDYWGQGTTVTVSS
VL: DIQLTQSPSFLSASVGDRVTITCKASQNVHTSLAWYQQKPGKAPKALIYLASNRHTGVPSRFSGSGSGTEFTLTISSLQPEDFATYYCLQHWNYPLTFGQGTKLEIKR
B17: PD-L1-1.168.15-z16-uIgG1K (antibody, V domains shown)
VH: EVQLVQSGAEVKKPGATVKISCKVSGFNIEDTYIYWVQQAPGKGLEWIGWIDPANYNTKYDPRFQDRVTITVDTSTNTAYMELSSLRSEDTAVYYCARGLRLLMDYWGQGTTVTVSS
VL: DIQMTQSPSFLSASVGDRVTITCKASQNVHTSLAWYQQKPGKSPKALIYLASNRHTGVPSRFSGSGSGTEFTLTISSLQPEDFATYFCLQHWNYPLTFGQGTKLEIKR
B18: PD-L1-1.168.15-z15-uIgG1K (antibody)
chain 1: not shown
chain 2: DIQMTQSPSFLSASVGDRVTITCKASQNVHTSLAWYQQKPGKSPKALIYLASNRHTGVPSRFSGSGSGTEFTLTISSLQPEDFATYFCLQHWNYPLTFGQGTKLEIKRTVAAPSVFIFPPSDEQLKSGTASVVCLLNNFYPREAKVQWKVDNALQSGNSQESVTEQDSKDSTYSLSSTLTLSKADYEKHKVYACEVTHQGLSSPVTKSFNRGEC
B19: PD-L1-1.168.15-z12-uIgG1K (antibody)
chain 1: not shown
chain 2: DIQMTQSPSFLSASVGDRVTITCKASQNVHTSLAWYQQKPGKSPKALIYLASNRHTGVPSRFSGSGSGTEFTLTISSLQPEDFATYYCLQHWNYPLTFGQGTKLEIKRTVAAPSVFIFPPSDEQLKSGTASVVCLLNNFYPREAKVQWKVDNALQSGNSQESVTEQDSKDSTYSLSSTLTLSKADYEKHKVYACEVTHQGLSSPVTKSFNRGEC
B20: PD-L1-1.168.15-z5-uIgG1K (antibody, V domains shown)
VH: EVQLVQSGAEVKKPGATVKISCKVSGFNIEDTYIYWVQQAPGKGLEWMGWIDPANYNTKYDPRFQDRVTITADTSTDTAYMELSSLRSEDTAVYYCARGLRLLMDYWGQGTTVTVSS
VL: DIQLTQSPSFLSASVGDRVTITCKASQNVHTSLAWYQQKPGKSPKALIYLASNRHTGVPSRFSGSGSGTEFTLTISSLQPEDFATYYCLQHWNYPLTFGQGTKLEIKR
B21: PD-L1-1.168.15-z0-uIgG1K (antibody, V domains shown)
VH: EVQLVQSGAEVKKPGATVKISCKVSGFNIEDTYIYWVQQAPGKGLEWMGWIDPANYNTKYDPRFQDRVTITADTSTDTAYMELSSLRSEDTAVYYCARGLRLLMDYWGQGTTVTVSS
VL: DIQLTQSPSFLSASVGDRVTITCKASQNVHTSLAWYQQKPGKAPKLLIYLASNRHTGVPSRFSGSGSGTEFTLTISSLQPEDFATYYCLQHWNYPLTFGQGTKLEIKR
B22: PD-L1-1.168.15-z10-uIgG1K (antibody)
chain 1: not shown
chain 2: DIQMTQSPSFLSASVGDRVTITCKASQNVHTSLAWYQQKPGKSPKALIYLASNRHTGVPSRFSGSGSGTEFTLTISSLQPEDFATYYCLQHWNYPLTFGQGTKLEIKRTVAAPSVFIFPPSDEQLKSGTASVVCLLNNFYPREAKVQWKVDNALQSGNSQESVTEQDSKDSTYSLSSTLTLSKADYEKHKVYACEVTHQGLSSPVTKSFNRGEC
B23: PD-L1-1.168.15-z18-uIgG1K (antibody, V domains shown)
VH: EVQLVQSGAEVKKPGATVKLSCKVSGFNIEDTYIYWVQQAPGKGLEWIGWIDPANYNTKYDPRFQDRVTVTVDTSTNTAYMELSSLRSEDTAVYYCARGLRLLMDYWGQGTTVTVSS
VL: DIQMTQSPSFLSASVGDRVTITCKASQNVHTSLAWYQQKPGKSPKALIYLASNRHTGVPSRFSGSGSGTEFTLTISSLQPEDFATYFCLQHWNYPLTFGQGTKLEIKR

Molecular target: T1, human Trop-2 (His) (human, UniProt P09758)
T1 chain: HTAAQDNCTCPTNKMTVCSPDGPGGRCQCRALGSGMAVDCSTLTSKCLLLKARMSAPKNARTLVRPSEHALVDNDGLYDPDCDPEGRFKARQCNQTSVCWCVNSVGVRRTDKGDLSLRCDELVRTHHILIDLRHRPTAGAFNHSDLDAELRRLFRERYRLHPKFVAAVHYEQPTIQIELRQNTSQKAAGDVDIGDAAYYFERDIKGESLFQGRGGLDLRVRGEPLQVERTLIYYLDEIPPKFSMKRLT
Test: SPR

Row | Binder | Kd [nM]
1 | B1 | 75.1
2 | B2 | 38.1
3 | B3 | 23.8
4 | B4 | 48.2
5 | B5 | 76.5

These binders were tested against hPD-L1(ECD)-His (human, UniProt Q9NZQ7) (assay: SPR supernatant).
hPD-L1(ECD)-His, sequence (Q9NZQ7 19-238): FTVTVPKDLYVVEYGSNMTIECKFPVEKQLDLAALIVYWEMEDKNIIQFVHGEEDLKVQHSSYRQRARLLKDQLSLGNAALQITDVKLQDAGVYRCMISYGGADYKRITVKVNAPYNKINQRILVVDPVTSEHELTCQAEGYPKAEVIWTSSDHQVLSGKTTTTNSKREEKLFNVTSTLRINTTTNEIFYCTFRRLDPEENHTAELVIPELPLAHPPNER

Row | Binder | Kd [nM]
6 | B6 | 1.09
7 | B7 | 0.501
8 | B8 | 1.07
9 | B9 | 1.04
10 | B10 | 0.998
11 | B11 | 1.13
12 | B12 | 0.844
13 | B13 | 1.67
14 | B14 | 1.01
15 | B15 | 0.915
16 | B16 | 1.4
17 | B17 | 1
18 | B18 | 1.19
19 | B19 | 1.13
20 | B20 | 1.24
21 | B21 | 1.29
22 | B22 | 0.995
23 | B23 | 1.86
